The supplement of paper PMC7877785
± gives the uncertainty stated by the source.

Test: self-splicing fitness, log relative to wild type (ln ratio); higher = more splicing; Tetrahymena group I intron in knt gene, E. coli kanamycin selection, DiMSum; sequences stand for … in CUCUCU…GGAGGGAAAAGUUAUCAGGCAUGCACCUGGUAGCUAGUCUUUAAACCAAUAGAUUGCAUCGGUUUAAAAGGCAAGACCGUCAAAUUGCGGGAAAGGGGUCAACAGCCGUUCAGUACCAAGUCUCAGGGGAAACUUUGAGAUGGCCUUGCAAAGGGUAUGGUAAUAAGCUGACGGACAUGGUCCUAACCACGCAGCCAAGUCCUAAGUCAACAGAUCUUCUGUUGAUAUGGAUGCAGUUCACAGACUAAAUGUCGGUCGGGGAAGAUGUAUUCUUCUCAUAAGAUAUAGUCGGACCUCUCCUUAAUGGGAGCUAGCGGAUGAAGUGAUGCAACACUGGAGCCGCUGGGAACUAAUUUGUAUGCGAAAGUAUAUUGAUUAGUUUUGGAGUACUCGUGGUCG
Summary of the method: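 The eight P1ex-region nucleotides of an intron in the knt kanamycin-resistance gene on pET-22b(+) were all randomised and the library put into E. coli BL21(DE3). Six replicate transformations were grown overnight at 37°C or 30°C on LB agar with or without 25 μg/mL kanamycin, together with 100 μg/mL carbenicillin, 50 μM IPTG and 0.2% rhamnose. Colonies were pooled and amplicon-sequenced on an Illumina HiSeq 2500. Fitness from DiMSum is the error-weighted combination of wild-type-normalised replicate fold changes, kanamycin over none.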

Sequence | self-splicing fitness (ln) (30 °C) | self-splicing fitness (ln) (37 °C)
CGAAAGCAAUAUUACGAUCG | -3.41 ± 0.43 | -1.34 ± 0.29
CGAAAGCAAUAUUACGCACU | -0.573 ± 0.11 | 0.0275 ± 0.13
CGAAAGCAAUAUUACGCGAC | -2.36 ± 0.19 | -3.26 ± 0.25
CGAAAGCAAUAUUACGCGAU | -2.86 ± 0.21 | -2.15 ± 0.34
CGAAAGCAAUAUUACGCGGU | -2.88 ± 0.17 | -2.41 ± 0.18
CGAAAGCAAUAUUACGCGUA | -2.68 ± 0.19 | -1.95 ± 0.18
CGAAAGCAAUAUUACGCUGC | -3.68 ± 0.23 | -2.69 ± 0.19
CGAAAGCAAUAUUACGGAUG | -0.462 ± 0.066 | -0.00232 ± 0.091
CGAAAGCAAUAUUACGGCCG | -1.64 ± 0.14 | -0.462 ± 0.21
CGAAAGCAAUAUUACGGGCG | -0.207 ± 0.098 | -0.157 ± 0.13
CGAAAGCAAUAUUACGGUCU | -0.258 ± 0.071 | -0.209 ± 0.089
CGAAAGCAAUAUUACGUAAG | -0.262 ± 0.049 | -0.000374 ± 0.07
CGAAAGCAAUAUUACGUUGU | -3.63 ± 0.15 | -2.7 ± 0.15
CGAAAGCAAUAUUACGUUUG | -2.33 ± 0.12 | -1.74 ± 0.14
CGAAAGCAAUAUUACGUUUU | -4.51 ± 0.24 | -2.31 ± 0.18
CGACAGCAAUAUUACGAAAG | -1.22 ± 0.13 | -0.409 ± 0.17
CGACAGCAAUAUUACGAAUA | -2.16 ± 0.18 | -3.12 ± 0.3
CGACAGCAAUAUUACGAUCC | -0.0657 ± 0.16 | -0.196 ± 0.19
CGACAGCAAUAUUACGAUGC | -3.57 ± 0.17 | -1.92 ± 0.18
CGACAGCAAUAUUACGCAAU | -4.5 ± 0.33 | -2.81 ± 0.22
CGACAGCAAUAUUACGCACC | -0.97 ± 0.21 | -1.79 ± 0.21
CGACAGCAAUAUUACGCACU | -1.22 ± 0.09 | 0.0742 ± 0.12
CGACAGCAAUAUUACGCAGA | -2.61 ± 0.1 | -2.06 ± 0.1
CGACAGCAAUAUUACGCCCA | -1.56 ± 0.11 | -0.725 ± 0.11
CGACAGCAAUAUUACGCCCG | 0.138 ± 0.24 | –

Sequence | self-splicing fitness (ln) (30 °C) | self-splicing fitness (ln) (37 °C)
CGACAGCAAUAUUACGCCUC | -2.24 ± 0.2 | -0.498 ± 0.2
CGACAGCAAUAUUACGCCUU | -2.4 ± 0.22 | -1.61 ± 0.23
CGACAGCAAUAUUACGCUGA | -3.49 ± 0.28 | -2.66 ± 0.28
CGACAGCAAUAUUACGCUGU | -3.04 ± 0.14 | -2.55 ± 0.15
CGACAGCAAUAUUACGGACC | -2.09 ± 0.083 | -0.0291 ± 0.11
CGACAGCAAUAUUACGGGAA | -3.44 ± 0.17 | -1.92 ± 0.099
CGACAGCAAUAUUACGGUGC | -3.61 ± 0.26 | -2.53 ± 0.16
CGACAGCAAUAUUACGUAAG | -0.425 ± 0.08 | 0.126 ± 0.095
CGACAGCAAUAUUACGUGGA | -3.38 ± 0.17 | -3.17 ± 0.18
CGACAGCAAUAUUACGUGUU | -2.38 ± 0.086 | -3.04 ± 0.17
CGAGAGCAAUAUUACGAAAA | – | -2.18 ± 0.37
CGAGAGCAAUAUUACGAAUC | -2.29 ± 0.27 | –
CGAGAGCAAUAUUACGACAA | -1.65 ± 0.39 | –
CGAGAGCAAUAUUACGACUA | -2.56 ± 0.46 | –
CGAGAGCAAUAUUACGCAAC | -1.2 ± 0.34 | -2.34 ± 0.35
CGAGAGCAAUAUUACGCAGU | -1.96 ± 0.41 | -2.21 ± 0.47
CGAGAGCAAUAUUACGCCCA | – | -0.872 ± 0.36
CGAGAGCAAUAUUACGCCUA | -2.4 ± 0.36 | -0.235 ± 0.38
CGAGAGCAAUAUUACGCGUG | -1.48 ± 0.13 | -2.95 ± 0.23
CGAGAGCAAUAUUACGCUAC | – | -2.11 ± 0.4
CGAGAGCAAUAUUACGGACG | -1.25 ± 0.23 | -0.913 ± 0.42
CGAGAGCAAUAUUACGGAUU | -2.72 ± 0.39 | –
CGAGAGCAAUAUUACGGCGC | -2.76 ± 0.21 | -1.62 ± 0.21
CGAGAGCAAUAUUACGGGCG | -2.3 ± 0.14 | -1.39 ± 0.18
CGAGAGCAAUAUUACGGGUC | – | -0.826 ± 0.23

Sequence | self-splicing fitness (ln) (30 °C) | self-splicing fitness (ln) (37 °C)
CGAGAGCAAUAUUACGUAGA | -1.62 ± 0.2 | -1.68 ± 0.3
CGAGAGCAAUAUUACGUCCU | -2.98 ± 0.39 | –
CGAGAGCAAUAUUACGUUAG | -4.23 ± 0.36 | -2.24 ± 0.29
CGAGAGCAAUAUUACGUUUU | -3.09 ± 0.24 | -2.79 ± 0.25
CGAUAGCAAUAUUACGAAAG | -0.907 ± 0.089 | -0.699 ± 0.12
CGAUAGCAAUAUUACGAUAC | – | -2.88 ± 0.41
CGAUAGCAAUAUUACGCCAC | -2.44 ± 0.44 | -0.944 ± 0.43
CGAUAGCAAUAUUACGCCCG | -1.39 ± 0.18 | -1.44 ± 0.25
CGAUAGCAAUAUUACGCCGG | -0.546 ± 0.11 | -0.0292 ± 0.14
CGAUAGCAAUAUUACGCCUA | -2.11 ± 0.22 | -1.38 ± 0.18
CGAUAGCAAUAUUACGCGCA | -0.97 ± 0.12 | -0.529 ± 0.12
CGAUAGCAAUAUUACGGAAA | -3.34 ± 0.24 | -1.53 ± 0.21
CGAUAGCAAUAUUACGGACA | -2.4 ± 0.28 | -0.977 ± 0.16
CGAUAGCAAUAUUACGGCAA | -2.65 ± 0.27 | -1.79 ± 0.22
CGAUAGCAAUAUUACGGGGC | -3.2 ± 0.35 | -2.56 ± 0.39
CGAUAGCAAUAUUACGGGUU | -3.84 ± 0.21 | -3.04 ± 0.24
CGAUAGCAAUAUUACGUAAC | -2.84 ± 0.17 | -3.84 ± 0.46
CGAUAGCAAUAUUACGUAAG | -0.163 ± 0.066 | 0.259 ± 0.082
CGAUAGCAAUAUUACGUCCA | -1.86 ± 0.15 | -0.237 ± 0.16
CGAUAGCAAUAUUACGUCGA | -3.77 ± 0.25 | -1.15 ± 0.12
CGAUAGCAAUAUUACGUCGC | -3 ± 0.15 | -2.79 ± 0.21
CGAUAGCAAUAUUACGUCUG | 0.295 ± 0.061 | 0.0438 ± 0.072
CGAUAGCAAUAUUACGUGGA | -1.9 ± 0.24 | -2.62 ± 0.31
CGAUAGCAAUAUUACGUGUG | -0.978 ± 0.057 | -0.336 ± 0.07
CGAUAGCAAUAUUACGUUGA | -2.74 ± 0.18 | -1.3 ± 0.14

Sequence | self-splicing fitness (ln) (30 °C) | self-splicing fitness (ln) (37 °C)
CGAUAGCAAUAUUACGUUGG | -1.62 ± 0.091 | -0.0971 ± 0.086
CGCAAGCAAUAUUACGAAAA | -2.47 ± 0.38 | -2.96 ± 0.4
CGCAAGCAAUAUUACGAAGG | -1.28 ± 0.098 | -0.75 ± 0.15
CGCAAGCAAUAUUACGAAUG | -1.4 ± 0.1 | -0.303 ± 0.1
CGCAAGCAAUAUUACGACAA | -2.37 ± 0.17 | -1.51 ± 0.16
CGCAAGCAAUAUUACGAUAC | -2.51 ± 0.17 | -2.58 ± 0.33
CGCAAGCAAUAUUACGAUUG | -2.21 ± 0.056 | -1.01 ± 0.07
CGCAAGCAAUAUUACGCAUC | -2.57 ± 0.12 | -2.66 ± 0.12
CGCAAGCAAUAUUACGCAUG | -2.77 ± 0.11 | -2.19 ± 0.12
CGCAAGCAAUAUUACGCGUA | -3.47 ± 0.15 | -2.55 ± 0.12
CGCAAGCAAUAUUACGCUCA | -0.828 ± 0.076 | -0.6 ± 0.088
CGCAAGCAAUAUUACGCUUA | -3.58 ± 0.35 | -1.8 ± 0.18
CGCAAGCAAUAUUACGGAGG | -1.02 ± 0.057 | -0.818 ± 0.072
CGCAAGCAAUAUUACGGCGC | -2.37 ± 0.12 | -1.73 ± 0.18
CGCAAGCAAUAUUACGGGAA | -2.96 ± 0.2 | -2.27 ± 0.19
CGCAAGCAAUAUUACGUAGC | -3.3 ± 0.17 | -1.17 ± 0.18
CGCAAGCAAUAUUACGUAGU | -3.1 ± 0.097 | -2.75 ± 0.098
CGCAAGCAAUAUUACGUAUG | -2.25 ± 0.091 | -0.723 ± 0.091
CGCAAGCAAUAUUACGUCGU | -3.27 ± 0.13 | -2.2 ± 0.1
CGCAAGCAAUAUUACGUCUA | -1.6 ± 0.13 | -0.573 ± 0.11
CGCAAGCAAUAUUACGUGUC | -2.39 ± 0.12 | -2.68 ± 0.16
CGCAAGCAAUAUUACGUUGG | -2.66 ± 0.096 | -1.02 ± 0.1
CGCAAGCAAUAUUACGUUGU | -3.69 ± 0.11 | -2.41 ± 0.12
